# Patent publication US20240116985A1 (published 2024)
# Starred links: 1 amine or outer side, 2 acyl side, 3 side chain; linkers in the order of their positions; H or OH if unused. Positions of bridges follow the written chain, without caps; N, C: chain ends. Non-standard residues stand in square brackets, D forms with d. Primed or numbered codes have the meaning given here. RdN(3) = (R)-4-(((allyloxy)carbonyl)(methyl)amino)-2-amino-2-methylbutanoic acid, stapling residue, C=CCOC(=O)N(C)CC[C@@](C)(N[*:1])C(=O)[*:2]; RdN″ = (R)-4-(((allyloxy)carbonyl)(methyl)amino)-2-amino-2-methylbutanoic acid (stapling residue), C=CCOC(=O)N(C)CC[C@@](C)(N[*:1])C(=O)[*:2]; PyrS″ = (S)-1-((allyloxy)carbonyl)-3-aminopyrrolidine-3-carboxylic acid (stapling residue), C=CCOC(=O)N1CC[C@@](N[*:1])(C(=O)[*:2])C1; PyrS = (S)-1-((allyloxy)carbonyl)-3-aminopyrrolidine-3-carboxylic acid, C=CCOC(=O)N1CC[C@@](N[*:1])(C(=O)[*:2])C1; Phe(3,4-F2) = N[C@@H](Cc1ccc(F)c(F)c1)C(=O)O; S7 = C[C@@](CCCCCC=[*:3])(N[*:1])C(=O)[*:2]; d(αMeF) = C[C@@](N)(Cc1ccccc1)C(=O)O; 2Pal = N[C@@H](Cc1ccccn1)C(=O)O; 4Pal = N[C@@H](Cc1ccncc1)C(=O)O; R8 = C=CCCCCCC[C@@](C)(N)C(=O)O; Cha = N[C@@H](CC1CCCCC1)C(=O)O; hLeu = CC(C)CC[C@H](N)C(=O)O; S5 = C=CCCC[C@](C)(N)C(=O)O
# T1: full-length beta-Catenin (Uniprot ID P35222) (Homo sapiens (Human), UniProt P35222 2-781)
# T1 construct: Used full-length in both the FP and the AlphaScreen assay; also called B-Catenin; bCat
# T1 sequence: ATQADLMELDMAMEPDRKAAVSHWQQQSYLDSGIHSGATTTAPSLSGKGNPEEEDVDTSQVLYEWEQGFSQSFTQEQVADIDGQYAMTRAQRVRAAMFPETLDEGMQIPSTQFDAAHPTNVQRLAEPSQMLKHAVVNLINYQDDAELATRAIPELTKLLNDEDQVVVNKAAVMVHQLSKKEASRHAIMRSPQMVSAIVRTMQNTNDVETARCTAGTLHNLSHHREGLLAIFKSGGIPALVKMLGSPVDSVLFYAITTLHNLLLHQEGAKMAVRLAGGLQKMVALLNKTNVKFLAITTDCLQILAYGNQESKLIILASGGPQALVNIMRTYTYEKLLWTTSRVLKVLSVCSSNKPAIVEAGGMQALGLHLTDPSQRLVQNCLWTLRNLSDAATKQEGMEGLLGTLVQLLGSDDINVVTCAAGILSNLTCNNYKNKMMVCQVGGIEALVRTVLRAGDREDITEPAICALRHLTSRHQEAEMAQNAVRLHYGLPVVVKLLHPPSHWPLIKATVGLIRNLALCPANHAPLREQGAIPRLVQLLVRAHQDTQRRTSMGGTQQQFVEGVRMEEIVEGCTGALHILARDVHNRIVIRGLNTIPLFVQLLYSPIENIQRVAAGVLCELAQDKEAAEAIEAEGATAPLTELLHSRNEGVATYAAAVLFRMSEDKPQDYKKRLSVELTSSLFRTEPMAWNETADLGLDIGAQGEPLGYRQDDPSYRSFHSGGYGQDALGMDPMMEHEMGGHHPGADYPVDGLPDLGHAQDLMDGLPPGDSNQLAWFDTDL
# B1: I-70 (peptide)
# peptide: Ac-ADI[RdN″]D[hLeu]AAFQ[S7]FWH-NH2
# modifications: staple 4-11
# notes: Stapled peptide; also called Ac-Ala-Asp-Ile-RdN-Asp-hLeu-Ala-Ala-Phe-Gln-S7-Phe-Trp-His-NH2
# B2: I-84 (peptide)
# peptide: Ac-FDA[R8]DDAAFV[PyrS″][4Pal]WQ-NH2
# modifications: staple 4-11; not fully specified; printed as Ac-Phe-Asp-Ala-R8-Asp-Asp-Ala-Ala-Phe-Val-PyrS-4PyrA-Trp-Gln-NH2
# notes: Stapled peptide; also called Ac-Phe-Asp-Ala-R8-Asp-Asp-Ala-Ala-Phe-Val-PyrS-4PyrA-Trp-Gln-NH2
# B3: I-50 (peptide)
# peptide: Ac-FD[RdN(3)]ADDAAF[S7]AFWQ-NH2
# modifications: staple 3-10; also: later-eluting HPLC isomer, E/Z not assigned
# notes: Stapled peptide; also called Ac-Phe-Asp-RdN-Ala-Asp-Asp-Ala-Ala-Phe-S7-Ala-Phe-Trp-Gln-NH2
# B4: I-80 (peptide)
# peptide: Ac-FDA[R8]DDAAFV[PyrS][2Pal]WQ-NH2
# modifications: staple 4-11
# notes: Stapled peptide; also called Ac-Phe-Asp-Ala-R8-Asp-Asp-Ala-Ala-Phe-Val-PyrS-2PyrA-Trp-Gln-NH2
# B5: I-47 (peptide)
# peptide: Ac-FD[R8]ADDAAF[S5]AFWQ-NH2
# modifications: staple 3-10; also: staple isomer composition: earlier-eluting HPLC peak
# notes: Stapled peptide; also called Ac-Phe-Asp-R8-Ala-Asp-Asp-Ala-Ala-Phe-S5-Ala-Phe-Trp-Gln-NH2
# B6: I-79 (peptide)
# peptide: Ac-FDA[R8]DDAA[Phe(3,4-F2)]V[PyrS]FWQ-NH2
# modifications: staple 4-11
# notes: Stapled peptide; also called Ac-Phe-Asp-Ala-R8-Asp-Asp-Ala-Ala-34FF-Val-PyrS-Phe-Trp-Gln-NH2
# B7: I-46 (peptide)
# peptide: FDAXDDAAFVXFWQ
# modifications: not fully specified; N-terminal Ac; C-terminal NH2; RgN at 4 and S7 at 11, stapled
# notes: Stapled peptide; also called Ac-Phe-Asp-Ala-RgN-Asp-Asp-Ala-Ala-Phe-Val-S7-Phe-Trp-Gln-NH2
# B8: I-58 (peptide)
# peptide: Ac-FDA[R8]DQAAFV[PyrS]FWQ-NH2
# modifications: staple 4-11; not fully specified; printed as Ac-Phe-Asp-Ala-R8-Asp-Gln-Ala-Ala-Phe-Val-PyrS-Phe-Trp-Gln-NH2
# notes: Stapled peptide; also called Ac-Phe-Asp-Ala-R8-Asp-Gln-Ala-Ala-Phe-Val-PyrS-Phe-Trp-Gln-NH2
# B9: I-62 (peptide)
# peptide: Ac-FDA[R8]DDAAFV[PyrS″]YWQ-NH2
# modifications: staple 4-11; not fully specified; printed as Ac-Phe-Asp-Ala-R8-Asp-Asp-Ala-Ala-Phe-Val-PyrS-Tyr-Trp-Gln-NH2
# notes: Stapled peptide; also called Ac-Phe-Asp-Ala-R8-Asp-Asp-Ala-Ala-Phe-Val-PyrS-Tyr-Trp-Gln-NH2
# B10: I-59 (peptide)
# peptide: Ac-FDA[R8]DQAAFV[PyrS″]FWQ-NH2
# modifications: staple 4-11; not fully specified; printed as Ac-Phe-Asp-Ala-R8-Asp-Gln-Ala-Ala-Phe-Val-PyrS-Phe-Trp-Gln-NH2
# notes: as for B8
# B11: I-57 (peptide)
# peptide: Ac-FDA[R8]D[d(αMeF)]AAFV[PyrS″]FWQ-NH2
# modifications: staple 4-11; not fully specified
# notes: Stapled peptide; also called Ac-Phe-Asp-Ala-R8-Asp-aMeDF-Ala-Ala-Phe-Val-PyrS-Phe-Trp-Gln-NH2
# B12: I-56 (peptide)
# peptide: Ac-FDA[R8]D[d(αMeF)]AAFV[PyrS″]FWQ-NH2
# modifications: staple 4-11
# notes: as for B11
# B13: I-63 (peptide)
# peptide: Ac-FDA[R8]DDAAFV[PyrS]YWQ-NH2
# modifications: staple 4-11; not fully specified; printed as Ac-Phe-Asp-Ala-R8-Asp-Asp-Ala-Ala-Phe-Val-PyrS-Tyr-Trp-Gln-NH2
# notes: as for B9
# B14: I-61 (peptide)
# peptide: Ac-FDA[R8]DDAAFV[PyrS][Cha]WQ-NH2
# modifications: staple 4-11
# notes: Stapled peptide; also called Ac-Phe-Asp-Ala-R8-Asp-Asp-Ala-Ala-Phe-Val-PyrS-Cha-Trp-Gln-NH2
# B15: I-73 (peptide)
# peptide: Ac-ADI[RdN(3)]D[Cha]AAFQ[S7]FWH-NH2
# modifications: staple 4-11; not fully specified; printed as Ac-Ala-Asp-Ile-RdN-Asp-Cha-Ala-Ala-Phe-Gln-S7-Phe-Trp-His-NH2
# notes: Stapled peptide; also called Ac-Ala-Asp-Ile-RdN-Asp-Cha-Ala-Ala-Phe-Gln-S7-Phe-Trp-His-NH2
# B16: I-60 (peptide)
# peptide: Ac-FDA[R8]DDAAFV[PyrS][Cha]WQ-NH2
# modifications: staple 4-11
# notes: as for B14
# B17: I-71 (peptide)
# peptide: Ac-ADI[RdN″]D[hLeu]AAFQ[S7]FWH-NH2
# modifications: staple 4-11
# notes: as for B1
# B18: I-74 (peptide)
# peptide: Ac-FDA[R8]DDAA[Cha]V[PyrS″]FWQ-NH2
# modifications: staple 4-11; not fully specified; printed as Ac-Phe-Asp-Ala-R8-Asp-Asp-Ala-Ala-Cha-Val-PyrS-Phe-Trp-Gln-NH2
# notes: Stapled peptide; also called Ac-Phe-Asp-Ala-R8-Asp-Asp-Ala-Ala-Cha-Val-PyrS-Phe-Trp-Gln-NH2
# B19: I-48 (peptide)
# peptide: FDXADDAAFXAFWQ
# modifications: not fully specified; N-terminal Ac; C-terminal NH2; R8 at 3 and S5 at 10, stapled
# notes: as for B5
# Target: T1, full-length beta-Catenin (Uniprot ID …)
# Test: AlphaScreen competition; full-length beta-catenin, biotin-TCF4(10-53) probe
# Description: Equal volume of the titrated peptide was added to the plate and incubated for 15 minutes at 20° C. Then 4 uL of donor and 4 uL acceptor beads at 10 ug/mL were added to the plate, for a 16 uL reaction pool and protected from light for 60 minutes at 20° C. prior to read. Reads were performed on a CLARIOstar plate reader (BMG Labtech) in duplicate, and data were fitted to a 1:1 binding model with hill slope using an in-house script. All provided concentrations are final concentrations.
row,EC50 [µM],Binder
1,≥ 10,B1
2,≥ 10,B2
3,≥ 10,B3
4,≥ 10,B4
5,≥ 10,B5
6,3.97,B6
7,≥ 10,B7
8,≥ 10,B8
9,≥ 10,B9
10,9.88,B10
11,≥ 10,B11
12,≥ 10,B12
13,≥ 10,B13
14,8.9,B14
15,≥ 10,B15
16,≥ 10,B16
17,≥ 10,B17
18,≥ 10,B18
19,≥ 10,B19
